Reference: the supplement of paper PMC9170038

Tests used:
[1] = test system: MS2 coat protein; assay: apparent KD of MS2 coat protein, switch ON state; designed switch direction (-1 OFF switch, 1 ON switch): 1; higher = weaker reporter binding; conditions: FMN input: 0 or 200 uM; Eterna round: R93 (includes R88 designs)
Summary of the method: (§1)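 Apparent KD was obtained for each design as the median of normalised binding-curve fits over its clusters. RNA switches transcribed on-chip from Illumina sequencing clusters were titrated with SNAP-549-labelled MS2 coat protein (twofold steps, 0.7 or 1.5 nM to 3 µM) in 100 mM Tris-HCl pH 7.5, 80 mM KCl, 4 mM MgCl2, without or with constant ligand.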

[2] = test system: MS2 coat protein; assay: apparent KD of MS2 coat protein, switch OFF state (with FMN for OFF switches, without FMN for ON switches); designed switch direction (-1 OFF switch, 1 ON switch): 1; higher = weaker reporter binding; conditions: FMN input: 0 or 200 uM; Eterna round: R93 (includes R88 designs)
Summary of the method: as §1

CCUAGGAAGAGAGAGGAUAUCCAAAGGAAAACAUGAGGAUCACCCAUGUAAAAGGUAGGAAAUUGGGAGAAGGCUCAAGAGAGAG [salish99-ss2-088]
apparent KD of MS2 coat protein [1]: 0.0209 µM
apparent KD of MS2 coat protein [2]: 0.0239 µM

CGAAAGGAGAGAGAGGAUAUCCAAAGGAAAACAUGAGGAUCACCCAUGUAGAAGGUAGGAGAUUGGGAGAAGGCUCAAGCAAAAC [salish99-ss2-157]
apparent KD of MS2 coat protein [1]: 0.0159 µM
apparent KD of MS2 coat protein [2]: 0.0186 µM

CGAAGACAUGAGGAUCACCCAUGUGGGAUUAUGGGAGGAUAUACAAAGACGAGAGUCAGAGUAGAAGGCCUAGGAC [salish99-ss1-127(!)]
apparent KD of MS2 coat protein [1]: 0.026 µM
apparent KD of MS2 coat protein [2]: 0.0334 µM

CGAAGACAUGAGGAUCACCCAUGUGGGAUUAUGGGAGGAUAUACAAAGACGAGAGUCAGAGUAGAAGGCCUAGGAU [salish99-ss1-125(!)]
apparent KD of MS2 coat protein [1]: 0.0224 µM
apparent KD of MS2 coat protein [2]: 0.0478 µM

CGAGAGGAGAGAGAGGAUAUCCAAAGGAAAACAUGAGGAUCACCCAUGUAGAAGGUAGGAGAUUGGGAGAAGGCUCAAGAAGAAG [salish99-ss2-159]
apparent KD of MS2 coat protein [1]: 0.0182 µM
apparent KD of MS2 coat protein [2]: 0.026 µM

CGCAAACAUGAGGAUCACCCAUGUCAUUGUGAUCAAGGAUAUGGGUUCCGAAGUGGAACACCAGAAGGUGAGUAGU [Sozaer]
apparent KD of MS2 coat protein [1]: 0.224 µM
apparent KD of MS2 coat protein [2]: 0.497 µM

CGCCAAUUGGCACAGGAUAUGAGCAUGCUCACAUGAGGAUCACCCAUGUGAUUAACAACGCAAUAUCAGAAGGGUGCCCUCAUCA [Leonon]
apparent KD of MS2 coat protein [1]: 0.0503 µM
apparent KD of MS2 coat protein [2]: 0.0331 µM

CGCGAACAUGAGGAUCACCCAUGUAGCGGGAAACAAGGAUAUGGGAGGCGAAAUCGCGGAUCAGAAGGUGUAAGCG [Laaratat]
apparent KD of MS2 coat protein [1]: 0.0147 µM
apparent KD of MS2 coat protein [2]: 0.0124 µM

CGGAAAGAGAGAGAGGAUAUCCAAAGGAAAACAUGAGGAUCACCCAUGUAGAAGGUAGGAAAUUGGGAGAAGGCUCAAGAGAGAG [salish99-ss2-132]
apparent KD of MS2 coat protein [1]: 0.0253 µM
apparent KD of MS2 coat protein [2]: 0.0267 µM

CGGAAGGAGAGAGAGGAUAUCCAAAGGAAAACAUGAGGAUCACCCAUGUAGAAGGUAGGAAAUUGGGAGAAGGCUCAAGAGAGUG [salish99-ss2-121]
apparent KD of MS2 coat protein [1]: 0.0302 µM
apparent KD of MS2 coat protein [2]: 0.0446 µM

CGGAAGGAGAGGGAGGAUAUCCAAAGGAAAACAUGAGGAUCACCCAUGUAGAAGGUAGGAAAUUGGGAGAAGGCUCAAGAGAGAG [salish99-ss2-131]
apparent KD of MS2 coat protein [1]: 0.0323 µM
apparent KD of MS2 coat protein [2]: 0.0244 µM

CGGAGACAUGAGGAUCACCCAUGUGAGAAGAGGCGAGGAUAUCGAAAGAAAGAAGAGAAACGAGAAGGCGCGAGUC [salish99-SS1-078]
apparent KD of MS2 coat protein [1]: 0.0204 µM
apparent KD of MS2 coat protein [2]: 0.025 µM

CGGCAAGAGAGAGAGGAUAUCCAAAGGAAAACAUGAGGAUCACCCAUGUAGAAGGUAGGAAAUUGGGAGAAGGCUCAAGAGAGAG [salish99-ss2-135]
apparent KD of MS2 coat protein [1]: 0.0232 µM
apparent KD of MS2 coat protein [2]: 0.0184 µM

CGGUAAGAGAGAGAGGAUAUCCAAAGGAAAACAUGAGGAUCACCCAUGUAGAAGGUAGGAAAUUGGGAGAAGGCUCAAGAGAGAG [salish99-ss2-133]
apparent KD of MS2 coat protein [1]: 0.0584 µM
apparent KD of MS2 coat protein [2]: 0.0617 µM

CUGGACCUAGGAUAGGAUAUGUGAAUAAUUACAUGAGGAUCACCCAUGUCCAUUUAUAUGGGAACAUAGAAGGGUUUUGGUUAAG [Mat - Same state - Malcolm Mod - D147]
apparent KD of MS2 coat protein [1]: 0.103 µM
apparent KD of MS2 coat protein [2]: 0.164 µM

GAAAAACAUGAGGAUCACCCAUGUACAAAUAUGGAAGGAUAUACGAUGACGAAAGUCAAAGUAGAAGGUCUAAAAG [Garnet 98]
apparent KD of MS2 coat protein [1]: 0.0209 µM
apparent KD of MS2 coat protein [2]: 0.0254 µM

GAAAAACAUGAGGAUCACCCAUGUAGAAAUAUGGGAGGAUAUACAAAGACGAAAGUCAAAGUAGAAGGCCUGAAGA [Mat - Same State 1 - JL mod - D91]
apparent KD of MS2 coat protein [1]: 0.0271 µM
apparent KD of MS2 coat protein [2]: 0.0731 µM

GAAAAACAUGAGGAUCACCCAUGUAGAAAUAUGGGAGGAUAUACAAAGACGAAAGUCAAAGUAGAAGGCCUGAGAA [Mat - Same State 1 - Eli mod - 83]
apparent KD of MS2 coat protein [1]: 0.021 µM
apparent KD of MS2 coat protein [2]: 0.103 µM

GAAAAACAUGAGGAUCACCCAUGUAGAAAUAUGGGAGGAUAUACAAGGACGAAAGUCAAGGUAGAAGGCCUAAAAG [Mat - Same State 1 - Eli mod - 26]
apparent KD of MS2 coat protein [1]: 0.0338 µM
apparent KD of MS2 coat protein [2]: 0.0986 µM

GAAAAACAUGAGGAUCACCCAUGUGGAAAUAUGGGAGGAUAUACGAAGACGAAAGUCAAAGUAGAAGGCCUAAAAG [Same State 1.4c (Mat - Mod of Eli - )]
apparent KD of MS2 coat protein [1]: 0.022 µM
apparent KD of MS2 coat protein [2]: 0.0838 µM

GAAAAACAUGAGGAUCACCCAUGUGUAAAUAUGGAAGGAUAUACGAAGACGUAAGUCAAAGUAGAAGGUCUAAAAG [Garnet 99]
apparent KD of MS2 coat protein [1]: 0.0193 µM
apparent KD of MS2 coat protein [2]: 0.0249 µM

GAAGACAUAGUUCAGGAUAUAGGAAUAGUCACAUGAGGAUCACCCAUGUGCAUUUAUAUGCGCACUUAGAAGGGAGGUAGUUAAU [Mat - Same state - Malcolm Mod - D120]
apparent KD of MS2 coat protein [1]: 0.0284 µM
apparent KD of MS2 coat protein [2]: 0.0268 µM

GACAAACAUGAGGAUCACCCAUGUAGAAAUAUGGGAGGAUAUACACAGACGAAAGUCAAAGUAGAAGGCCUAAAAG [77%, Mat - Mod of Eli - With 2 more C's]
apparent KD of MS2 coat protein [1]: 0.0285 µM
apparent KD of MS2 coat protein [2]: 0.137 µM

GACCGGGACGCGUAGGAUAUGUAGUGCGCUACAUGAGGAUCACCCAUGUGCGAGACUUCAAAAGAGCAGAAGGGUGUGUGCCCGG [Xegeedri]
apparent KD of MS2 coat protein [1]: 0.0402 µM
apparent KD of MS2 coat protein [2]: 0.0658 µM

GAGAAACAUGAGGAUCACCCAUGUAGAAAUAUGGGAGGAUAUACAAAGACGAAAGUCAAAGUAGAAGGCCUAAAAG [77%, Mat - Mod of Eli - With 1 more G's]
apparent KD of MS2 coat protein [1]: 0.026 µM
apparent KD of MS2 coat protein [2]: 0.0559 µM

GAGAAGGAGAGAGAGGAUAUCCAAAGGAAAACAUGAGGAUCACCCAUGUAAAAGGUAGGAAAUUGGGAGAAGGCUCAAGAGAGAG [salish99-ss2-108(!)]
apparent KD of MS2 coat protein [1]: 0.033 µM
apparent KD of MS2 coat protein [2]: 0.0343 µM

GAGAUACAUGAGGAUCACCCAUGUUGAAACAUGGGAGGAUAUACAAGGUCGAAAGAUAAGGUAGAAGGCCUAAAAG [LROPPY Same State 1 - v04_deltaG=3.]
apparent KD of MS2 coat protein [1]: 0.0376 µM
apparent KD of MS2 coat protein [2]: 0.0203 µM

GAGCCGCGGGCACAGGAUAUGCUCGGGCAAACAUGAGGAUCACCCAUGUGCGGCCUAAAUACGACGCAGAAGGGUGCUUGUGUGU [Lausisan]
apparent KD of MS2 coat protein [1]: 0.0365 µM
apparent KD of MS2 coat protein [2]: 0.102 µM

GGAAGACAUGAGGAUCACCCAUGUGGGAAUAUGGGAGGAUAUACAAAGACGAGAGUCAGAGUAGAAGGCCUAGGAU [salish99-ss1-100]
apparent KD of MS2 coat protein [1]: 0.044 µM
apparent KD of MS2 coat protein [2]: 0.138 µM

GGCAGGAAGAGAGAGGAUAUCCAAAGGAAAACAUGAGGAUCACCCAUGUAAAAGGUAGGAAAUUGGGAGAAGGCUCAAGAGAGAG [salish99-ss2-099]
apparent KD of MS2 coat protein [1]: 0.0309 µM
apparent KD of MS2 coat protein [2]: 0.0354 µM

GGGAGACAUGAGGAUCACCCAUGUGAGAAGAGGCGAGGAUAUCGAAAAAAAAAAAAAAAACGAGAAGGCGCGAGAC [salish99-SS1-006]
apparent KD of MS2 coat protein [1]: 0.0336 µM
apparent KD of MS2 coat protein [2]: 0.0945 µM

GGGAGACAUGAGGAUCACCCAUGUGAGAAGAGGCGAGGAUAUCGAAAGAAAGAAGAGAAACGAGAAGGCGCGAGCA [salish99-SS1-052]
apparent KD of MS2 coat protein [1]: 0.0391 µM
apparent KD of MS2 coat protein [2]: 0.0604 µM

GGGAGGAAGAGAGAGGAUAUCCAAAGGAAAACAUGAGGAUCACCCAUGUAAAAGGUAGGAAAUUGGGAGAAGGCUCAAGAGAUGG [salish99-ss2-052]
apparent KD of MS2 coat protein [1]: 0.059 µM
apparent KD of MS2 coat protein [2]: 0.0392 µM

GGGAGUAACAGAGAGGAUAUCCAAAGGAAAACAUGAGGAUCACCCAUGUAAAAGGAAGGAAAUUGGGAGAAGGCUCAAAAUAGAA [salish99-ss2-021]
apparent KD of MS2 coat protein [1]: 0.0139 µM
apparent KD of MS2 coat protein [2]: 0.027 µM

GUGGACGUAGGAUAGGAUAUAUGAAUAAUUACAUGAGGAUCACCCAUGUCCAUUUAUAUGGGAACAUAGAAGGGUUGUGGUUAAC [Mat - Same state - Malcolm Mod - D132]
apparent KD of MS2 coat protein [1]: 0.364 µM
apparent KD of MS2 coat protein [2]: 0.602 µM

GUGGUGUAGGUACAGGAUAUGUUGCUCGUAACAUGAGGAUCACCCAUGUACCUAUGAGAUUAAAUGCAGAAGGGUGCACACCACG [Alage]
apparent KD of MS2 coat protein [1]: 0.0373 µM
apparent KD of MS2 coat protein [2]: 0.118 µM

UAAAAAAAAAGACAGGAUAUCCAAAAGAAAACAUGAGGAUCACCCAUGUAAAAGAAAAUAAAAUGGGAGAAGGGUCAAAAAAAAU [Mat - Same State 2 - JL mod - D79]
apparent KD of MS2 coat protein [1]: 0.031 µM
apparent KD of MS2 coat protein [2]: 0.0535 µM

UAAUAAUAAACCAAGGAUAUGGAGUAUAGCACAUGAGGAUCACCCAUGUGUAGCGUGGGUUAGUACCAGAAGGUGGAGUGAAAUG [JR_SS002_Sub1001]
apparent KD of MS2 coat protein [1]: 0.0878 µM
apparent KD of MS2 coat protein [2]: 0.0828 µM

UGAAGACAUGAGGAUCACCCAUGUGGGAAUAUGGGAGGAUAUACAAAGACGAGAGUCAGAGUAGAAGGCCUAGGAC [salish99-ss1-98]
apparent KD of MS2 coat protein [1]: 0.0479 µM
apparent KD of MS2 coat protein [2]: 0.133 µM

UGGAGGAAGAGAGAGGAUAUCCAAAGGAAAACAUGAGGAUCACCCAUGUAAAAGGUAGGAAAUUGGGAGAAGGCUCAAGAGAGAG [salish99-ss2-059]
apparent KD of MS2 coat protein [1]: 0.0372 µM
apparent KD of MS2 coat protein [2]: 0.0637 µM

UUUCAUUACACGAAGGAUAUCGCUUUUCAGACAUGAGGAUCACCCAUGUAGUAGAUUUCCCUGUUCGAGAAGGUCGCGGGUGAAC [JR_SS002_Sub603]
apparent KD of MS2 coat protein [1]: 0.0515 µM
apparent KD of MS2 coat protein [2]: 0.0704 µM
